These substances were tested against thymidylate synthase (TS) (zebrafish) (UniProt A0ACM8Q3Q5) (assay: competition EMSA). Settings: 37 C, 10 min; 100 ng TS (200 ng in Fig. 5B legend), 1 ng 32P TS mRNA; non-denaturing 5% acrylamide gel (60:1); binding buffer, salt and pH not given (cited ref.).
Chain of thymidylate synthase (TS) (zebrafish) (A0ACM8Q3Q5 entry or part of it): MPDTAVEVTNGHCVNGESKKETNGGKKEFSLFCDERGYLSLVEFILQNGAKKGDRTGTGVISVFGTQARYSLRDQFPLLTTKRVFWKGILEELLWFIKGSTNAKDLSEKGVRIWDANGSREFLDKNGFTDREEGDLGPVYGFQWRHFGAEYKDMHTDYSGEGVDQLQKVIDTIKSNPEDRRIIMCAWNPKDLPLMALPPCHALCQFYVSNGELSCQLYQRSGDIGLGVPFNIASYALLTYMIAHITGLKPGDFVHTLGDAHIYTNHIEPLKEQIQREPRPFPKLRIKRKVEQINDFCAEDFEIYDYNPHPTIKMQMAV

| Substance | IC50 [nM] |
| --- | --- |
| TS1-36 | 0.6 |
| TS1-72 | 0.65 |
| TS1-145 | 0.52 |
| TS1-290 | 0.48 |
| TS1-580 | 0.48 |
| TS37-74 (TS37-72 in Methods) | > 1000 |
| TS73-145 | > 1000 |
| TS146-290 | > 1000 |
| TS291-580 | > 1000 |
| TS581-1163 | > 1000 |
| full-length TS mRNA (TS1-1163) | 0.5 |

Same assay, conditions: vs 32P full-length TS mRNA; 100-fold excess also did not compete (Fig. 3); 37 C, 10 min; 100 ng TS (200 ng in Fig. 5B legend), 1 ng 32P TS mRNA; non-denaturing 5% acrylamide gel (60:1); binding buffer, salt and pH not given (cited ref.)

| Substance | IC50 [nM] |
| --- | --- |
| luciferase mRNA | > 1000 |

Reference: publication PMC2868900
